Test results published in the supplement of paper PMC12764529.
± gives the half width of the 95% confidence interval.

Legend:
[1] = folding stability dG unfold from chymotrypsin proteolysis; higher = more stable
Summary of the method: (§1)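 Digests were run with trypsin and chymotrypsin at 11 concentrations in threefold dilutions, plus a no-protease condition, on designed mini-proteins in a PA-tagged cDNA display construct. The mini-proteins were under 80 residues, had no cysteine, and were kept only when AlphaFold2 dimer inter-PAE was above 15. After sequencing, Bayesian fitting of the counts gave K50, from which unfolding free energy was derived against a sequence-predicted unfolded-state K50 and a shared folded-state K50, per protease or combined.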

[2] = folding stability dG unfold from trypsin proteolysis; higher = more stable
Summary of the method: as §1

[3] = folding stability dG unfold (combined trypsin and chymotrypsin); higher = more stable
Summary of the method: as §1

Sequence	folding stability dG unfold [1] [kcal/mol]	folding stability dG unfold [2] [kcal/mol]	folding stability dG unfold [3] [kcal/mol]
SAGGSAETTKDPNKPVETISTPGTLIKITKYPDSYNATIEPLDENGNVTGSESGPIKSIEEVLRQLSAGGSA [r15_288_JUSTAS]	0.597 ± 0.067	-0.615 ± 0.16	0.216 ± 0.12
SAGGSAGGSAGGFYDPNGKWRIKIKPEVFEFPNYRFIKMKIEVDGRPIMEMPMLIPPNDSAGGSAGGSAGGS [r10_628_TrROS]	2.45 ± 0.16	3.41 ± 0.31	2.73 ± 0.34
SAGGSAGGSSPVRTLTIPTENLTPEEILELVKNNPVDSVVLNADSEEEEKLKEELKKAGIKVLSAGGSAGGS [r12_610_JUSTAS]	0.138 ± 0.15	-0.501 ± 0.071	-0.0698 ± 0.098
SETVTVTVTVTVTLYRRRPDGKWVPIAELTVTVTRTVEKEDEEEARRAVREEVEDELRKLAEELGVEIEPSA [r9_356_TrROS_Hall]	5.79 ± 0.12	3.94 ± 0.095	5.6 ± 0.15
SAGGSAGGSAGGMPVIEIPIRPDPNGKPRSAEEIASKIKDRFGYPVKIVSVENNHITITVSAGGSAGGSAGG [r17_426_TrROS]	0.983 ± 0.066	0.166 ± 0.076	0.707 ± 0.18
SAGGSAGGMLRIKTKDGKEIEITDDEVRIRFADGKKTVTVPAEKLKEALEAAEKAGMEIVEIEPSAGGSAGG [r6_337_TrROS_Hall]	1.9 ± 0.057	0.00945 ± 0.21	1.44 ± 0.16
SAGMKIEVKKKKDGKLEVEIEVKTKDGRTIRVKIYYDKKTKKFYIVEIEAESEEEKKKAEELLKKLLKSSAG [r5_266_TrROS_Hall]	3.62 ± 0.045	2.83 ± 0.14	3.42 ± 0.12
SAGKAELVEVTIEGDKLTALFKIPETGGLVLAEAEFDNGIVKVKAKFYSPSGKPLGEAEFTLPASELKLSAG [r5_308_TrMRF]	2.73 ± 0.067	1.83 ± 0.1	2.48 ± 0.12
SAGPEPDWVYIKAKVDKGGIKIEWYNPDGPWEFKLPDGEEIYIFIPPGGSPEDMLDEFKNFAKELADKSAGG [r19_170_TrROS]	2.1 ± 0.21	1.41 ± 0.22	2.18 ± 0.71
SKTLTLEVEVPEGPVRIVVEASDGSRLEAEVPADEKVTFTIPIPPDIPEETKVTVRVYNPETGEVTELEASA [r9_275_TrMRF]	1.11 ± 0.069	0.353 ± 0.063	0.789 ± 0.066
SAGGMKVEVEVDPETGELYLKIYFPETGEVALVKIDPKTKTAEVVGSTDFVKEALPELGINNPTLVPGSAGG [r13_511_TrMRF]	1.59 ± 0.088	1.06 ± 0.051	1.43 ± 0.061
SAGGSAGGSAGKIKITEIHFMPNGMVVVEIEFEDPDGETFNLTVVFRFDPNGKIRDIHIMSAGGSAGGSAGG [r11_709_TrROS]	4.35 ± 0.07	3.35 ± 0.15	4.22 ± 0.17
SAGGSAGGSAPPGQQLRVRIRIYNPNNGEPKREREFPGMTVDDLKEWAQKNGWRIREIEVDSAGGSAGGSAG [r3_423_TrROS]	1.49 ± 0.2	0.559 ± 0.1	1.3 ± 0.095
SAGGMPGEVVDISDVPPGATLYDPEGKSYGPVVDVRVTVGPDSVEITITFPDGTTRTITAPRDKIYILPSAG [r5_850_JUSTAS]	1.24 ± 0.065	1.83 ± 0.083	1.59 ± 0.14
SASSITVSYDESTGVTTVTVDGGGFTFTVPNPEGKTLTVTVTQEALPDGTTRVTVTITFPDGSTTTVVVSAG [r14_675_JUSTAS]	5 ± 0.18	4.17 ± 0.2	5.06 ± 0.17
SAGGSAGGSAGGSFTIASVETIRQPNGEILYRITLKFPDGTVEEVLEVPESEAGKVLSSLSAGGSAGGSAGG [r7_891_JUSTAS]	3.333 ± 0.025	3.23 ± 0.12	3.3 ± 0.07
SAGGSAEVTFTLPDGTPFSGEVTRFPDSIRVTLTVGSTPASFEMDPSTNLITGNIPGRPLTVSLGLSAGGSA [r2_194_JUSTAS]	1.11 ± 0.1	1.17 ± 0.03	1.18 ± 0.053
SAGGSAGGSAGDKRITIWFPVPPGQPPPTLEEIADELPGFEDVDIDVEMYPNGYYRITIESAGGSAGGSAGG [r17_205_TrROS]	1.05 ± 0.14	0.812 ± 0.047	0.966 ± 0.078
SAGGSAGGSAYIPAEEIAEEVAAVLPPDEVALFPLPEKPLVVLVVREEDGVPRVLVLPPELASAGGSAGGSA [r18_61_TrMRF]	0.367 ± 0.093	0.00934 ± 0.069	0.261 ± 0.082
SAGGMTITVTVPEVPPDRTVTVEVYKPGEKLGSYSGTLNQPKNVTYTFTVPPATITINYSDGKTYPIPLSAG [r5_646_JUSTAS]	3.4 ± 0.038	2.22 ± 0.19	3.01 ± 0.25
SAGGSAGGSAGGSTPTPDGSPVEITLPDGTVVTFDPATNSITIATRTPDSVSTTPIPAAASAGGSAGGSAGG [r7_527_JUSTAS]	1.08 ± 0.037	1.34 ± 0.031	1.2 ± 0.035
